From article PMC4422259, “Arc is a flexible modular protein capable of reversible self-oligomerization” (Biochemical Journal, 2015)

Tests used:
[1] = molecular target: the molecule itself; experiment: dynamic light scattering; hArc 22 μM (1 mg/ml) in 10 mM potassium phosphate, pH 7.4, without salt, at 20°C and 90°C
[2] = molecular target: the molecule itself; experiment: dynamic light scattering; hArc 22 μM (1 mg/ml) in 10 mM potassium phosphate, pH 7.4, at 36°C

B1: recombinant human Arc (activity-regulated cytoskeleton-associated protein), wild type, cleaved from the His-ZZ-hArc fusion protein (natural protein, UniProt Q7LC44 1-396, looked up)
chain: MELDHRTSGGLHAYPGPRGGQVAKPNVILQIGKCRAEMLEHVRRTHRHLLAEVSKQVERELKGLHRSVGKLESNLDGYVPTSDSQRWKKSIKACLCRCQETIANLERWVKREMHVWREVFYRLERWADRLESTGGKYPVGSESARHTVSVGVGGPESYCHEADGYDYTVSPYAITPPPAAGELPGQEPAEAQQYQPWVPGEDGQPSPGVDTQIFEDPREFLSHLEEYLRQVGGSEEYWLSQIQNHMNGPAKKWWEFKQGSVKNWVEFKKEFLQYSEGTLSREAIQRELDLPQKQGEPLDQFLWRKRDLYQTLYVDADEEEIIQYVVGTLQPKLKRFLRHPLPKTLEQLIQRGMEVQDDLEQAAEPAGPHLPVEDEAETLTPAPNSESVASDRTQPE
notes: human Arc (activity-regulated cytoskeleton-associated protein); called full-length hArc; Vector pETZZ_1a; also called WT hArc; Arc/Arg3.1; source: E. coli BL21-CodonPlus, auto-induction medium, purified (Ni-NTA, TEV cleavage, second Ni-NTA flow-through); not shown: His, N-terminal, cleaved; ZZ domain, N-terminal, cleaved
[1]
  stoichiometry N: ≥ 40 subunits
[2]
  stoichiometry N: > 12 subunits
